Results: patent US20170305994A1 (Novo Nordisk, published 2017)
Like-named read-outs stand apart in the source and are kept apart here.

T1: human DR3 (full length, on cells) (human, UniProt Q93038 25-417)
T1 construct: also called hDR3; Death Receptor 3
T1 sequence: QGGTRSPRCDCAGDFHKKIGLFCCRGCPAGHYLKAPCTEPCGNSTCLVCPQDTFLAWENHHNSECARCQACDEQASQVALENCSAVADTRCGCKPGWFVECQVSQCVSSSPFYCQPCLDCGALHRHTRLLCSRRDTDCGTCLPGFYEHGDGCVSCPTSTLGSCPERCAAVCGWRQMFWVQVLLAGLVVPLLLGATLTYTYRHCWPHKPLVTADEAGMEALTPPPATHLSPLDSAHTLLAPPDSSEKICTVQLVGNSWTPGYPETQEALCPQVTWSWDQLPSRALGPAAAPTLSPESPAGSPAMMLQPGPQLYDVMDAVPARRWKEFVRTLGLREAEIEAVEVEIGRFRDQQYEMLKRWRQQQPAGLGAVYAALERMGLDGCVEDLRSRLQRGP

B1: 0087 (Fab from papain cleavage of mAb 0072) (Fab, V domains shown)
VH: EVKLVESGGGLVKPGGSLKLSCSASGFAFSNYDMSWVRQTPEKRLEWVAAFSSDGYTFYPDSLKGRFTISRDNARNTLYLQMSSLGSEDTALYCCARHADYANYPVMDYWGQGTSVTVSS
VL: DIVLAQSPASLLVSLGQRATISCRASKSVSTSGYSYMHWYQQKPGQPPKLLIYLASNLESGVPARFSGSGSGTDFTLNIHPVEEEDAATYYCQHSRELPLTFGAGTMLELKR
notes: murine IgG1 Fab by papain cleavage
B2: 0170 (humanized IgG1 Fab of 0072; HC T28A S49A Y91; LC Q3A T5A S60A M4) (Fab, V domains shown)
VH: EVQLVESGGGLVQPGGSLRLSCAASGFTFSNYDMSWVRQAAGKGLEWVSAFSSDGYTFYPGAVKGRFTISRENAKNSLYLQMNSLRAGDTAVYYCARHADYANYPVMDYWGQGTLVTVSS
VL: DIAMAQSPSSLSASVGDRVTITCRASKSVSTSGYSYMHWYQQKPGKAPKLLIYLASNLEAGVPSRFSGSGSGTDFTLTISSLQPEDFATYYCQHSRELPLTFGGGTKVEIK
B3: 0171 (humanized IgG1 Fab of 0072 without back mutations) (Fab, V domains shown)
VH: EVQLVESGGGLVQPGGSLRLSCAASGFTFSNYDMSWVRQATGKGLEWVSAFSSDGYTFYPGSVKGRFTISRENAKNSLYLQMNSLRAGDTAVYYCARHADYANYPVMDYWGQGTLVTVSS
VL: DIQMTQSPSSLSASVGDRVTITCRASKSVSTSGYSYMHWYQQKPGKAPKLLIYLASNLESGVPSRFSGSGSGTDFTLTISSLQPEDFATYYCQHSRELPLTFGGGTKVEIK
B4: 0173 (humanized IgG1 Fab of 0072; HC T28A S49A Y91S; LC Q3A T5A S60A M4L) (Fab, V domains shown)
VH: EVQLVESGGGLVQPGGSLRLSCAASGFTFSNYDMSWVRQAAGKGLEWVSAFSSDGYTFYPGAVKGRFTISRENAKNSLYLQMNSLRAGDTAVYYCARHADYANSPVMDYWGQGTLVTVSS
VL: DIALAQSPSSLSASVGDRVTITCRASKSVSTSGYSYMHWYQQKPGKAPKLLIYLASNLEAGVPSRFSGSGSGTDFTLTISSLQPEDFATYYCQHSRELPLTFGGGTKVEIK
B5: 0073 (murine mAb purified from hybridoma 28F26A3) (antibody, V domains shown)
VH: EVKVVESGGGLVKPGGSLKLSCAASGFVFSSYDMSWVRQIPEKRLEWVAAISSGDYYTYYPDSVKGRFTISRDDARNTLYLQMSSLRSEDTALYYCARHRGGNYPQYAMDYWGQGTSVTVSS
VL: DILLTQSPASFAVSLGQRATISCRASKSVSTSGYNYIHWYQQKPGQPPKLLIYLTSNLESGVPARFSGSGSGTDFTLNIHPVEEEDAATYYCQHSRELPFTFGSGTKLEIKR
notes: murine IgG2a, kappa; also called 0085
B6: 0088 (Fab from papain cleavage of mAb 0073) (Fab, V domains shown)
VH: EVKVVESGGGLVKPGGSLKLSCAASGFVFSSYDMSWVRQIPEKRLEWVAAISSGDYYTYYPDSVKGRFTISRDDARNTLYLQMSSLRSEDTALYYCARHRGGNYPQYAMDYWGQGTSVTVSS
VL: DILLTQSPASFAVSLGQRATISCRASKSVSTSGYNYIHWYQQKPGQPPKLLIYLTSNLESGVPARFSGSGSGTDFTLNIHPVEEEDAATYYCQHSRELPFTFGSGTKLEIKR
notes: murine IgG2a Fab by papain cleavage

Assays:
[1] = target: T1, human DR3 (full length, on cells); assay: flow cytometry on IL-12/IL-18/TL1A activated CD4+ T cells, 1 µg/ml
Procedure: (§1) Buffy Coats were obtained from normal healthy volunteers from Copenhagen University Hospital. CD4+ T cells were isolated through magnetic bead separation. Cells were activated with 2 ng/ml IL-12, 50 ng/ml IL-18 and 100 ng/ml TL1A (Flag-HIS-TEV-TL1A-produced at Novo Nordisk A/S) and cultured for 5 days. On day 5 cells were stained with 10, 5, 1, 0.5, 0.1 or 0.0001 μg/ml of the anti-DR3 mAb clones 0072, 0073, or 0077, or with Fab fragment clones 0087, 0088 and 0091. A secondary PE conjugated goat-anti-mouse (H+L) was used for detection.
as §1, with “Material and Methods: Buffy” for “Buffy”, “Copenhagen” for “Copenhagen University”, “0088 or” for “0088 and”, “detection. Samples were in duplicate. Staining intensity was evaluated by FACS.” for “detection.”

[2] = target: T1, human DR3 (full length, on cells); assay: cell-based or functional assay
[3] = target: T1, human DR3 (full length, on cells); assay: flow cytometry on IL-12/IL-18/TL1A activated CD4+ T cells, 1 µg/ml; remark: listed apart in the source
Procedure: as §1
The greater observed MFI values of IgG treated compared with Fab treated cells was expected since the secondary (detecting) antibody (anti-IgG heavy and light chain) bound to both Fab and Fc parts of the full-length IgG antibody clones, but only to Fab parts of Fab clones (Table 9).

[4] = target: T1, human DR3 (full length, on cells); assay: cell-based or functional assay; remark: listed apart in the source
[5] = target: T1, human DR3 (full length, on cells); assay: cell-based or functional assay; remark: listed apart in the source
[6] = target: T1, human DR3 (full length, on cells); assay: cell-based or functional assay; remark: listed apart in the source
[7] = target: T1, human DR3 (full length, on cells); assay: flow cytometry on CD3/CD28-stimulated human CD4+ T cells
Procedure: Human CD4-positive T cells were purified from Buffy coats using CD4 Rosettesep (Stem cell technologies) and Histopaque (Sigma). T cells were stimulated with CD3/CD28 Dynabeads (Invitrogen) at a 1:1 ratio for 4 days in T75 flask at 2 mio CD4 T cells/ml in RPMI supplemented with 10% fcs. Beads were removed using a magnet, and cells were washed twice before titrating in antibodies on 500.000 cells/staining. Binding saturation was measured after incubation with goat-anti-mouse phycoerythrin (Jackson ImmunoResearch) and cells were subsequently analysed by flow cytometry on a BD LSRII. All antibodies reached saturation at 3 μg/ml.

[8] = target: T1, human DR3 (full length, on cells); assay: cell-based or functional assay; remark: listed apart in the source

Binder	MFI [1] [MFI]	fold response, DR3 reporter, 40 ng/ml TL1A + 0.1 microg/ml [2] [fold]	fold response, DR3 reporter, 40 ng/ml TL1A + 1 microg/ml [2] [fold]	fold response, DR3 reporter, 40 ng/ml TL1A + 10 microg/ml [2] [fold]	fold response, DR3 reporter, 40 ng/ml TL1A + 100 microg/ml [2] [fold]	fold response, DR3 reporter, no TL1A, 0.1 microg/ml [2] [fold]	MFI [3] [MFI]	IC100 of inhibition of IFN-γ secretion, TL1A-costimulated RA synovial fluid cells [4] [µg/mL]	IFN-γ, TL1A-costimulated RA SF cells, Fab 0.003 µg/mL [5] [pg/mL]	IFN-γ, TL1A-costimulated RA SF cells, Fab 0.01 µg/mL [5] [pg/mL]	IFN-γ, TL1A-costimulated RA SF cells, Fab 0.03 µg/mL [5] [pg/mL]	IFN-γ, TL1A-costimulated RA SF cells, Fab 0.1 µg/mL [5] [pg/mL]	IFN-γ, TL1A-costimulated RA SF cells, Fab 0.3 µg/mL [5] [pg/mL]	IFN-γ, TL1A-costimulated RA SF cells, Fab 1 µg/mL [5] [pg/mL]	IFN-γ, TL1A-costimulated lymphocytes, Fab 0.003 µg/mL [6] [ng/mL]	IFN-γ, TL1A-costimulated lymphocytes, Fab 0.01 µg/mL [6] [ng/mL]	IFN-γ, TL1A-costimulated lymphocytes, Fab 0.03 µg/mL [6] [ng/mL]	IFN-γ, TL1A-costimulated lymphocytes, Fab 0.1 µg/mL [6] [ng/mL]	IFN-γ, TL1A-costimulated lymphocytes, Fab 0.3 µg/mL [6] [ng/mL]	IFN-γ, TL1A-costimulated lymphocytes, Fab 1.0 µg/mL [6] [ng/mL]	also measured
B1	500	5.8	2.7	2.1	2.1	1	500	–	–	–	–	–	–	–	–	–	–	–	–	–	fold response, DR3 reporter, no TL1A, 1 microg/ml [2]: 1 fold; fold response, DR3 reporter, no TL1A, 10 microg/ml [2]: 1 fold; fold response, DR3 reporter, no TL1A, 100 microg/ml [2]: 1 fold
B2	–	–	–	–	–	–	–	~0.1	1790	1640	1360	1170	1300	1250	131	101	108	46	51	63	–
B3	–	–	–	–	–	–	–	~0.1	1870	1380	1220	1140	1160	1230	140	105	69	52	62	40	–
B4	–	–	–	–	–	–	–	~0.1	1550	1230	1130	1130	992	1060	160	163	95	69	62	48	–
B5	1300	–	–	–	–	–	1300	–	–	–	–	–	–	–	–	–	–	–	–	–	Median Fluorescent Intensity [7]: 2840; Staining index (MFI Ab/MFI Isotype) [7]: 12.8; saturation concentration [7]: 3 µg/mL; fold response, DR3 reporter, 40 ng/ml TL1A + 0.1 microg/ml [8]: 24.2 fold; fold response, DR3 reporter, 40 ng/ml TL1A + 1 microg/ml [8]: 27.9 fold; fold response, DR3 reporter, 40 ng/ml TL1A + 10 microg/ml [8]: 25.5 fold; fold response, DR3 reporter, 40 ng/ml TL1A + 100 microg/ml [8]: 19 fold; fold response, DR3 reporter, no TL1A, 0.1 microg/ml [8]: 12.8 fold; fold response, DR3 reporter, no TL1A, 1 microg/ml [8]: 14.4 fold; fold response, DR3 reporter, no TL1A, 10 microg/ml [8]: 12.8 fold; fold response, DR3 reporter, no TL1A, 100 microg/ml [8]: 6.9 fold
B6	500	15.2	6.3	2.9	2.8	1.1	500	–	–	–	–	–	–	–	–	–	–	–	–	–	fold response, DR3 reporter, no TL1A, 1 microg/ml [2]: 1.1 fold; fold response, DR3 reporter, no TL1A, 10 microg/ml [2]: 1.1 fold; fold response, DR3 reporter, no TL1A, 100 microg/ml [2]: 1 fold
